{"source": "patent US11766432B2", "about": "“Cleavable conjugates of catechol compounds and water-soluble polymers and methods of treatment using the same” (SERINA THERAPEUTICS, INC., priority 2018, dated 2023)", "key": {"[1]": {"settings": "female, cynomolgus monkey, in vivo, sc, 1.5 mg/kg"}, "skin at injection site [2]": {"system": "skin at injection site", "settings": "for tolerability after SC injection: primates, single SC injection 1.5 mg/kg"}, "in vivo": {"test": "in vivo", "settings": "female, cynomolgus monkey, sc, 1.5 mg/kg"}, "[3]": {"settings": "single SC injection 1.5 mg/kg; for PR (percent of released apomorphine): AUC0-last(free) relative to AUC0-last(total); for PR (percent of released apomorphine) / AUC0-168 / AUC0-inf / AUC0-last / CL/F obs / Cmax / Tmax: mean; for time by which drug is cleared and BLQ / AUC0-168 / AUC0-inf / AUC0-last / CL/F obs / Cmax / Tmax: total apomorphine, plasma"}, "skin at injection site [4]": {"system": "skin at injection site", "settings": "for tolerability after SC injection: primates, SC injection 3.0 mg/kg (apomorphine equivalents), multiple doses; for skin at the site of injection 12 hours after the third dose (day 14): weekly SC injection 3.0 mg/kg (apomorphine equivalents)", "protocol": "Non-naïve female cynomolgus monkeys were used in the study. […] They were assigned to three groups with 3 animals per group.\nThe test articles were dosed subcutaneously (as described in Table 6) in the right shoulder on days 0 and 14 and in the left shoulder on days 7 and 21, of each monkey. […] Photographs were taken to study the severity of the reactions and observations that were recorded.\nTo determine if the Apo-A, Apo-B, and Apo-G conjugates induced skin reactions at a concentration of 3.0 mg/kg (as compared to the 1.5 mg/kg dose described in Examples 18 and 20), all animals were/will be monitored daily for these skin reactions. Photographs were/will be taken to study the skin reactions and observations were/will be recorded. Bases on the presence of erythema and swelling, the skin reactions were/will be recorded as none, slight, well defined, moderate and severe."}, "[5]": {"test": "Pharmacokinetics of free apomorphine in plasma after single SC infusion/injection", "settings": "for dose dumping (burst effect): after single SC administration 1.5 mg/kg; for AUC0-168 / AUC0-inf / AUC0-last / Cmax / Tmax / time post-dose by which drug is completely cleared and below the limit of quantification (BLQ) / increase of Tmax as compared to apomorphine HCl / increase of t1/2z as compared to apomorphine HCl: free apomorphine, single SC 1.5 mg/kg; for AUC0-168 / AUC0-inf / AUC0-last / Cmax / Tmax / time post-dose by which drug is completely cleared and below the limit of quantification (BLQ): plasma; for AUC0-168 / AUC0-inf / AUC0-last / Cmax / Tmax: female monkeys, mean n=3; for period of sustained release of apomorphine: single SC injection 1.5 mg/kg, monkeys"}, "[6]": {"settings": "single SC 1.5 mg/kg, per animal"}}, "note": "“And” between values parts separate entries of the source, which are not always exact repeats. Identical values can stand only once. Counter-ions that a name gives are not always drawn. Like-named read-outs stand apart in the source and are kept apart here.", "data": [{"molecule": "CN1CCc2cccc3c2[C@H]1Cc1ccc(O)c(O)c1-3", "note": "[apomorphine HCl, Apomorphine hydrochloride]", "values": [{"measurement": "time post-dose by which drug is completely cleared and below the limit of quantification (BLQ)", "setting": "[1]", "result": "≤ 24", "unit": "h"}, {"measurement": "Observations (skin reaction), Day 15", "setting": "skin at injection site [2]; female, cynomolgus monkey, in vivo, sc, 1.5 mg/kg, 15 day", "result": "Day 15: Skin appears normal."}, {"measurement": "AUC0-inf", "setting": "in vivo", "result": 90.2, "unit": "ng·h/mL"}, {"measurement": "CL/F", "setting": "in vivo", "result": 289, "unit": "mL/min/kg"}, {"measurement": "Cmax", "setting": "in vivo", "result": 10.6, "unit": "ng/mL"}, {"measurement": "Vd/F", "setting": "in vivo", "result": 43.6, "unit": "L/kg"}, {"measurement": "AUC(0-t)", "setting": "in vivo; cynomolgus", "result": 89.8, "unit": "ng·h/mL"}, {"measurement": "Cmax", "setting": "in vivo; cynomolgus", "result": "~10.6", "unit": "ng/mL"}, {"measurement": "Tmax", "setting": "in vivo; cynomolgus", "result": 4, "unit": "h"}]}, {"molecule": "POZ10p20k[Apo(2-methylpropanoate)(4-triazolebutanoate)]10 [POZ-Apomorphine B]", "values": [{"measurement": "PR (percent of released apomorphine)", "setting": "[3]", "result": 5.5, "unit": "%"}, {"measurement": "time by which drug is cleared and BLQ", "setting": "[3]", "result": "> 240", "unit": "h"}, {"measurement": "AUC0-168", "setting": "[3]", "result": 8317, "unit": "ng·h/mL"}, {"measurement": "AUC0-inf", "setting": "[3]", "result": 16456, "unit": "ng·h/mL"}, {"measurement": "AUC0-last", "setting": "[3]", "result": 11610, "unit": "ng·h/mL"}, {"measurement": "CL/F obs", "setting": "[3]", "result": 1.52, "unit": "mL/min/kg"}, {"measurement": "Cmax", "setting": "[3]; 1.5 mg/kg", "result": "72.6 ng/mL and 72.7 ng/mL"}, {"measurement": "Tmax", "setting": "[3]; 1.5 mg/kg", "result": 136.0, "unit": "h"}, {"measurement": "tolerability after SC injection", "setting": "skin at injection site [2]", "result": "well tolerated"}, {"measurement": "Observations (skin reaction), Day 1 to Day 15", "setting": "skin at injection site [2]; [6]", "result": "Day 1 to Day 15: No erythema and swelling."}, {"measurement": "Observations (skin reaction), Day 15", "setting": "skin at injection site [2]; [6]", "result": "Day 15: Skin appears normal."}, {"measurement": "tolerability after SC injection", "setting": "skin at injection site [4]", "result": "well tolerated"}, {"measurement": "skin at the site of injection 12 hours after the third dose (day 14)", "setting": "skin at injection site [4]", "result": "appeared normal with no sign of erythema and swelling"}, {"measurement": "dose dumping (burst effect)", "setting": "[5]", "result": "no evidence of dose dumping"}, {"measurement": "AUC0-168", "setting": "[5]", "result": 478, "unit": "ng·h/mL"}, {"measurement": "AUC0-inf", "setting": "[5]", "result": 968, "unit": "ng·h/mL"}, {"measurement": "AUC0-last", "setting": "[5]", "result": 640, "unit": "ng·h/mL"}, {"measurement": "Cmax", "setting": "[5]", "result": 3.5, "unit": "ng/mL"}, {"measurement": "Tmax", "setting": "[5]", "result": 104, "unit": "h"}, {"measurement": "time post-dose by which drug is completely cleared and below the limit of quantification (BLQ)", "setting": "[5]", "result": "> 240", "unit": "h"}, {"measurement": "increase of Tmax as compared to apomorphine HCl", "setting": "[5]", "result": 26, "unit": "times"}, {"measurement": "increase of t1/2z as compared to apomorphine HCl", "setting": "[5]", "result": 84.3, "unit": "times"}, {"measurement": "period of sustained release of apomorphine", "setting": "[5]", "result": 10, "unit": "days"}]}, {"molecule": "POZ10p20k[Apo(4-butanoate)(4-triazolebutanoate)]10 [POZ-Apomorphine A]", "values": [{"measurement": "PR (percent of released apomorphine)", "setting": "[3]", "result": 4.8, "unit": "%"}, {"measurement": "time by which drug is cleared and BLQ", "setting": "[3]", "result": "≤ 240", "unit": "h"}, {"measurement": "AUC0-168", "setting": "[3]", "result": 13368, "unit": "ng·h/mL"}, {"measurement": "AUC0-inf", "setting": "[3]", "result": 138986, "unit": "ng·h/mL"}, {"measurement": "AUC0-last", "setting": "[3]", "result": 13835, "unit": "ng·h/mL"}, {"measurement": "CL/F obs", "setting": "[3]", "result": 1.82, "unit": "mL/min/kg"}, {"measurement": "Cmax", "setting": "[3]", "result": 151.3, "unit": "ng/mL"}, {"measurement": "Tmax", "setting": "[3]", "result": 88, "unit": "h"}, {"measurement": "tolerability after SC injection", "setting": "skin at injection site [2]", "result": "well tolerated"}, {"measurement": "Observations (skin reaction), Day 1 to Day 15", "setting": "skin at injection site [2]; [6]", "result": "Day 1 to Day 15: No erythema and swelling."}, {"measurement": "Observations (skin reaction), Day 15", "setting": "skin at injection site [2]; [6]", "result": "Day 15: Skin appears normal."}, {"measurement": "tolerability after SC injection", "setting": "skin at injection site [4]", "result": "well tolerated"}, {"measurement": "skin at the site of injection 12 hours after the third dose (day 14)", "setting": "skin at injection site [4]", "result": "appeared normal with no sign of erythema and swelling"}, {"measurement": "dose dumping (burst effect)", "setting": "[5]", "result": "no evidence of dose dumping"}, {"measurement": "AUC0-168", "setting": "[5]", "result": 647, "unit": "ng·h/mL"}, {"measurement": "AUC0-inf", "setting": "[5]", "result": 666, "unit": "ng·h/mL"}, {"measurement": "AUC0-last", "setting": "[5]", "result": 656, "unit": "ng·h/mL"}, {"measurement": "Cmax", "setting": "[5]", "result": 6.6, "unit": "ng/mL"}, {"measurement": "Tmax", "setting": "[5]", "result": 88, "unit": "h"}, {"measurement": "time post-dose by which drug is completely cleared and below the limit of quantification (BLQ)", "setting": "[5]", "result": "≤ 240", "unit": "h"}, {"measurement": "increase of Tmax as compared to apomorphine HCl", "setting": "[5]", "result": 22, "unit": "times"}, {"measurement": "increase of t1/2z as compared to apomorphine HCl", "setting": "[5]", "result": 13.2, "unit": "times"}, {"measurement": "period of sustained release of apomorphine", "setting": "[5]", "result": 5, "unit": "days"}]}]}
